Usually Tm stands for the temperature at which the thermal transition is half complete.

Values joined by “and” are separate entries in the source; they are usually repeats but may differ in a detail not shown here. Identical values can stand only once.

The labels stand for the following.
B1: AP-4 complex subunit mu-1, O00189 (parent)
chain: MISQFFILSSKGDPLIYKDFRGDSGGRDVAELFYRKLTGLPGDESPVVMHHHGRHFIHIRHSGLYLVVTTSENVSPFSLLELLSRLATLLGDYCGSLGEGTISRNVALVYELLDEVLDYGYVQTTSTEMLRNFIQTEAVVSKPFSLFDLSSVGLFGAETQQSKVAPSSAASRPVLSSRSDQSQKNEVFLDVVERLSVLIASNGSLLKVDVQGEIRLKSFLPSGSEMRIGLTEEFCVGKSELRGYGPGIRVDEVSFHSSVNLDEFESHRILRLQPPQGELTVMRYQLSDDLPSPLPFRLFPSVQWDRGSGRLQVYLKLRCDLLSKSQALNVRLHLPLPRGVVSLSQELSSPEQKAELAEGALRWDLPRVQGGSQLSGLFQMDVPGPPGPPSHGLSTSASPLGLGPASLSFELPRHTCSGLQVRFLRLAFRPCGNANPHKWVRHLSHSDAYVIRI
B2: Glypican-1, P35052 (parent)
chain: MELRARGWWLLCAAAALVACARGDPASKSRSCGEVRQIYGAKGFSLSDVPQAEISGEHLRICPQGYTCCTSEMEENLANRSHAELETALRDSSRVLQAMLATQLRSFDDHFQHLLNDSERTLQATFPGAFGELYTQNARAFRDLYSELRLYYRGANLHLEETLAEFWARLLERLFKQLHPQLLLPDDYLDCLGKQAEALRPFGEAPRELRLRATRAFVAARSFVQGLGVASDVVRKVAQVPLGPECSRAVMKLVYCAHCLGVPGARPCPDYCRNVLKGCLANQADLDAEWRNLLDSMVLITDKFWGTSGVESVIGSVHTWLAEAINALQDNRDTLTAKVIQGCGNPKVNPQGPGPEEKRRRGKLAPRERPPSGTLEKLVSEAKAQLRDVQDFWISLPGTLCSEKMALSTASDDRCWNGMARGRYLPEVMGDGLANQINNPEVEVDITKPDMTIRQQIMQLKIMTNRLRSAYNGNDVDFQDASDDGSGSGSGDGCLDDLCSRKVSRKSSSSRTPLTHALPGLSEQEGQKTSAASCPQPPTFLLPLLLFLALTVARPRWR
B3: Catalase-peroxidase 2, A4QUT2 (parent)
chain: MHASLSSWLLAASLLTQPISVSGQGCPFAKRDGTVDSSLPQKRADAPETTTFGRCAVKSNQAGGGTRSHDWWPCQLRLDVLRQFQPSQNPLGGDFDYAEAFQSLDYEAVKKDIAALMTESQDWWPADFGNYGGLFVRMAWHSAGTYRAMDGRGGGGMGQQRFAPLNSWPDNQNLDKARRLIWPIKQKYGNKISWADLMLLTGNVALENMGFKTLGFGGGRADTWQSDEAVYWGAETTFVPQGNDVRYNNSVDINARADKLEKPLAATHMGLIYVNPEGPNGTPDPAASAKDIREAFGRMGMNDTETVALIAGGHAFGKTHGAVKGSNIGPAPEAADLGMQGLGWHNSVGDGNGPNQMTSGLEVIWTKTPTKWSNGYLESLINNNWTLVESPAGAHQWEAVNGTVDYPDPFDKTKFRKATMLTSDLALINDPEYLKISQRWLEHPEELADAFAKAWFKLLHRDLGPTTRYLGPEVPKESFIWQDPLPAREGDLIDDADVDKLKAAILSTDGLDVSKLASTAMACATTYRNSDKRGGCNGARIALEPQRNWVSNNPTQLSAVLDALKKVQSDFNGSNGNKKVSLADLIVLGGTAAVEKAAKDAGVDIKVPFSAGRVDATQEQTDVTQFSYLEPQADGFRNYGRGTARARTEEIMVDKASQLTLTPPELTVLVGGMRALGANYDGSDVGVFTANKGKLTPDFFVNLVDMNIAWTASGADGESWVGTDRKSRSEKYKGSRADLVFGSHAELRAIAEVYAENGNQEKFVKDFVAAWTKVMNLDRFDLKVKK
B4: Penicillolysin, P47189 (parent)
chain: MRFTTLSTAFLALAQNVYAFPIESDLSALDVTLSQVSDTRIKAVVKNTGAENVTFVHLNFFRDSAPVKKVSVYRENNEVVFDGIKRRFQLQGLASESLTTLEAGEVLEDEFDIATTTDLSSGGAITLRSNGLVPVVKDGAVTGYLPYSSNDLKLNIDGAKASTVTKALKPLDRRTKETCSNASRKSALEKALSNTVKLANAAATAARSGSASKFSEYFKTTSSSTRSVVAARLEAVAKEAQSASSGSTTYYCSDTLGYCETNVLAYTLPARNIIANCDIYYSYLPALAGTCHQQDQATTTLHEFTHAPGVYSPGTDDLGYGYSAATSLSSSQAVLNADSYALYANAINLGC
B5: Subtilisin BPN', P00782 (parent)
chain: MRGKKVWISLLFALALIFTMAFGSTSSAQAAGKSNGEKKYIVGFKQTMSTMSAAKKKDVISEKGGKVQKQFKYVDAASATLNEKAVKELKKDPSVAYVEEDHVAHAYAQSVPYGVSQIKAPALHSQGYTGSNVKVAVIDSGIDSSHPDLKVAGGASMVPSETNPFQDNNSHGTHVAGTVAALNNSIGVLGVAPSASLYAVKVLGADGSGQYSWIINGIEWAIANNMDVINMSLGGPSGSAALKAAVDKAVASGVVVVAAAGNEGTSGSSSTVGYPGKYPSVIAVGAVDSSNQRASFSSVGPELDVMAPGVSIQSTLPGNKYGAYNGTSMASPHVAGAAALILSKHPNWTNTQVRSSLENTTTKLGDSFYYGKGLINVQAAAQ
B6: Triosephosphate isomerase, P00943 (parent)
chain: MRKPIIAGNWKMHKTLAEAVQFVEDVKGHVPPADEVISVVCAPFLFLDRLVQAADGTDLKIGAQTMHFADQGAYTGEVSPVMLKDLGVTYVILGHSERRQMFAETDETVNKKVLAAFTRGLIPIICCGESLEEREAGQTNAVVASQVEKALAGLTPEQVKQAVIAYEPIWAIGTGKSSTPEDANSVCGHIRSVVSRLFGPEAAEAIRIQYGGSVKPDNIRDFLAQQQIDGPLVGGASLEPASFLQLVEAGRHE
B7: Serine hydroxymethyltransferase, P0A825 (parent)
chain: MLKREMNIADYDAELWQAMEQEKVRQEEHIELIASENYTSPRVMQAQGSQLTNKYAEGYPGKRYYGGCEYVDIVEQLAIDRAKELFGADYANVQPHSGSQANFAVYTALLEPGDTVLGMNLAHGGHLTHGSPVNFSGKLYNIVPYGIDATGHIDYADLEKQAKEHKPKMIIGGFSAYSGVVDWAKMREIADSIGAYLFVDMAHVAGLVAAGVYPNPVPHAHVVTTTTHKTLAGPRGGLILAKGGSEELYKKLNSAVFPGGQGGPLMHVIAGKAVALKEAMEPEFKTYQQQVAKNAKAMVEVFLERGYKVVSGGTDNHLFLVDLVDKNLTGKEADAALGRANITVNKNSVPNDPKSPFVTSGIRVGTPAITRRGFKEAEAKELAGWMCDVLDSINDEAVIERIKGKVLDICARYPVYA
B8: Barstar, P11540 (parent)
chain: MKKAVINGEQIRSISDLHQTLKKELALPEYYGENLDALWDCLTGWVEYPLVLEWRQFEQSKQLTENGAESVLQVFREAKAEGCDITIILS
B9: Decorsin, P17350 (parent)
chain: APRLPQCQGDDQEKCLCNKDECPPGQCRFPRGDADPYCE

In one data set the parent is B1. Particulars: Homo sapiens; pH 7.4; Thermal; DSC; structure 3L81; whole UniProt chain shown.
On to R283D, for which the Tm is 52.8 °C and the “change of melting temperature, mutant - wild type (higher = more stable)” value (“change of melting temperature, mutant” below) was -3 °C.

Turning to D190A, the Tm came to 50.9 °C and the “change of melting temperature, mutant” value is -4.9 °C.

In another data set the parent is B2. The note with it: Homo sapiens; pH 7; 20 °C; Urea; CD; Sodium Phosphate Buffer; transition: 2; structure 4ACR; whole UniProt chain shown.
Regarding N79Q N116Q, the “denaturant midpoint (higher = more stable)” value is 5.37 M.

The data set is the same for the next values; noted with them: Homo sapiens; pH 7.4; Thermal; CD; Sodium Phosphate Buffer; reversible: no; structure 4ACR; whole UniProt chain shown.
Turning to N79Q N116Q, the Tm was found to be 66 °C and the “change of melting temperature, mutant” value is -3 °C.

Take N79Q: the Tm was 66 °C and the “change of melting temperature, mutant” value is 0 °C.

The variants in the next data set derive from B3. Particulars: Pyricularia oryzae (strain 70-15 / ATCC MYA-4617 / FGSC 8958); pH 7; Thermal; DSC; Phosphate buffer 5 mM; transition: 2; structure 5JHZ; whole UniProt chain shown.
For Y273F, the Tm was 43.6 °C.

As for M299A, the Tm was determined as 48.2 °C.

Take W140F: the Tm is 44.8 °C.

In the next data set the parent is B4. Particulars: Penicillium citrinum; pH 5; Thermal; CD; sodium acetate 10 mM; reversible: no; whole UniProt chain shown.
For T255P, the Tm came to 71 °C and the “change of melting temperature, mutant” value was 3 °C.

Turning to A341E, the Tm is 70 °C and the “change of melting temperature, mutant” value stood at 2 °C.

For R207E E234R, the Tm amounted to 70 °C and the “change of melting temperature, mutant” value was found to be 2 °C.

In the next data set the parent is B5. The note with it: Bacillus amyloliquefaciens; pH 9.63; Thermal; DSC; glycine 50 mM; reversible: yes; structure 1SUP; whole UniProt chain shown.
In the case of M157F Y324K N325S S328C, the Tm was 63.5 °C, the “unfolding enthalpy (calorimetric)” value was found to be 140 kcal/mol and the “unfolding enthalpy (van 't Hoff)” value came to 140 kcal/mol.

Still in this data set, the particulars now being: Bacillus amyloliquefaciens; pH 5; 20 °C; Thermal; DSC; Sodium acetate 100 mM; reversible: yes; structure 1SUP; whole UniProt chain shown.
In the case of K87E, the “ddG of mutation (higher = less stable)” value amounted to 1 kcal/mol and the unfolding free energy came to 1.1 kcal/mol.

For E62Q K87E, the “ddG of mutation (higher = less stable)” value is 1.3 kcal/mol and the unfolding free energy came out at 0.8 kcal/mol.

Take Q70L: the “ddG of mutation (higher = less stable)” value is 1.1 kcal/mol and the unfolding free energy was determined as 1 kcal/mol.

The same data set, now with this note: Bacillus amyloliquefaciens; pH 8; Thermal; DSC; Tris-HCl 50 mM; CaCl2 10 mM; reversible: no; structure 1SUP; whole UniProt chain shown.
For N325S, the Tm is 80.7 °C and the “change of melting temperature, mutant” value was 2.4 °C.

Staying with this data set, now noted: Bacillus amyloliquefaciens; pH 8; Thermal; DSC; Tris-HCl 50 mM; KCl 50 mM; structure 1SUP; whole UniProt chain shown.
Consider T129C, for which the Tm amounted to 56.4 °C and the “change of melting temperature, mutant” value is -2.5 °C.

For S194C, the Tm worked out at 57.2 °C and the “change of melting temperature, mutant” value was -1.7 °C.

On to T129C S194C, for which the Tm came out at 62 °C and the “change of melting temperature, mutant” value is 3.1 °C.

The data set is the same for the next values; noted with them: Bacillus amyloliquefaciens; pH 7.5; Thermal; fluorescence; Pipes 10 mM; transition: 2; structure 1AK9; whole UniProt chain shown.
For T173M G209D, the Tm came to 56.3 °C; the “change of melting temperature, mutant” value is -0.5 °C; the “unfolding enthalpy (calorimetric)” value was determined as 72.8 kcal/mol.

The variants in the next data set derive from B6. The note with it: Geobacillus stearothermophilus; pH 7.6; Thermal; DSC; TEA 100 mM; structure 1BTM; whole UniProt chain shown.
Turning to H13N, the Tm was 77 °C and the “change of melting temperature, mutant” value stood at 1 °C.

Take K14G: the Tm was 73 °C and the “change of melting temperature, mutant” value is -3 °C.

As for H13N K14G, the Tm is 105 °C.

The variants in a further data set derive from B7. The note with it: Escherichia coli (strain K12); pH 7.5; 30 °C; Urea; Fluorescence; Tris-HCl 20 mM; structure 1DFO; whole UniProt chain shown.
In the case of W385F, the unfolding free energy worked out at 4 kcal/mol.

Turning to W16Y, the unfolding free energy is 3.7 kcal/mol.

In the case of W16F W183F, the unfolding free energy was found to be 5.9 kcal/mol.

The data set is the same for the next values; noted with them: Escherichia coli (strain K12); pH 7.5; 30 °C; Urea; Fluorescence; Tris-HCl 20 mM; transition: 3; structure 1DFO; whole UniProt chain shown.
For W183F W385F, the unfolding free energy is 4.2 kcal/mol and 5.5 kcal/mol.

Variants of B8 are the subject of a further data set. Particulars: Bacillus amyloliquefaciens; pH 8; 10 °C; Urea; CD; Tris Cl 50 mM; KCl 100 mM; structure 1BTA; whole UniProt chain shown.
Turning to L52V, the “ddG of mutation (higher = less stable)” value was found to be 0.6 kcal/mol and the unfolding free energy turned out to be 2.4 kcal/mol.

Turning to L35V, the “ddG of mutation (higher = less stable)” value was 1.1 kcal/mol and the unfolding free energy was found to be 1.9 kcal/mol.

For I6V, the “ddG of mutation (higher = less stable)” value came to 1 kcal/mol and the unfolding free energy came out at 2 kcal/mol.

Regarding L17V, the “ddG of mutation (higher = less stable)” value turned out to be 1.1 kcal/mol and the unfolding free energy worked out at 1.9 kcal/mol.

The data set is the same for the next values; noted with them: Bacillus amyloliquefaciens; pH 7; Thermal; CD; phosphate 20 mM; structure 1A19; whole UniProt chain shown.
On to H18Q, for which the Tm stood at 65 °C.

The next data set covers variants of B9. The note with it: Macrobdella decora; pH 7; Thermal; CD; Na2HPO4 10 mM; reversible: Yes; structure 1DEC; whole UniProt chain shown.
Turning to P23A, the Tm came to 66.5 °C and the “change of melting temperature, mutant” value was -7.5 °C.

Consider P23A P24A, for which the Tm worked out at 50 °C and the “change of melting temperature, mutant” value was -24 °C.

In the case of P24A, the Tm amounted to 66.5 °C and the “change of melting temperature, mutant” value is -7.5 °C.

(Values after FireProtDB.)
